Laboratory results reported in the DeepSol protein solubility set.

Assay: soluble on expression in E. coli; label from the status in PepcDB or PDB records

Sequence | soluble on expression in E. coli
DFDFEGNLALFDKAAVFEEIDTYERRSGTRSRGIPNERPTRYRHDENILESEPIVYRRIIVPHNVSKEFCTDSGLVVPSISYELHKKLLSVAEKHGLTLERRLEMTGVCASQMALTLLGGPNRLNPKNVHQRPTVALLCGPHVKGAQGISCGRHLANHDVQVILFLPNFVKMLESITNELSLFSKTQGQQVSSLKDLPTSPVDLVINCLDCPENVFLRDQPWYKAAVAWANQNRAPVLSIDPPVHEVEQGIDAKWSLALGLPLPLGEHAGRIYLCDIGIPQQVFQEVGINYHSPFGCKFVIPLHSA | soluble
DFKLDFKDIKGQEKAKRACMIAALGMHNILFEGSPGSGKSMCAKRLVYIMPPQSLSEILMQNAYMSLDSKDCEFTKIRAFRHPHHTSTRASIFGGGTKNARIGEVALANGGVLFFDEFPHFNKQIIESLREPLEDHKIHISRVNSKITYETKFSFIAAQNPCPCGNL | not soluble
DGFRIAFISDLHYKSLFKEKGLESLVRLLNAQHADVLLMGGDYQEGCQYVPELFAALAKVKTPMGTYGVMGNNDYERCHDEIIREMQRYGMRPLEHQIDTLRRDGAQIILAGVRNPFDLANNGVSPTLSLSPSDFVILLVHTPDYAEDVSVANSDLVLAGHTHGGQVRILGYAPIIPSHYGSRF | not soluble
DIRPSKLLTWCQQQTEGYQHVNVTDLTTSWRSGLALCAIIHRFRPELINFDSLNEDDAVENNQLAFDVAEREFGIPPVTTGKEMASAQEPDKLSMVMYLSKFYELFRGTPLRPV | soluble
DKIIMDPHAVLGPVDPQLGQYPAPSIVRAVEKKGVDKVDDQTLILADVAEKAIRQVRDFIFNLLKDKYGEEKAKELAQVLTEGRWTHDYPITVEEAKKLGLNVSTDVPEEVYALMELYKQPIRQRGTVEFVPYPMKQEGK | not soluble
DKKIMVIVNTVDKAITLYEKLRDLSPCLIHSRFKIGDRDEKLRKECNIIIATQVIEVGVNISSEVMITEQAPITSIVQRVGRLLRDNKKDKGELYIWKSGNYYPYDKDEVENTIKELESKKNDISL | not soluble
DLKQREQALEDSRQRYQTLLQAAPDPIFVADAETGEIVEANAAAEELRGQPRDDIIGRHQTELHPEEAGGLYEDVFEQAFDDASTITELPDGTQPELATPDGETVPIEISAAAVSLPDGPVLFGVFRDVS | not soluble
DLYFQGGSGMQCEEKLEVFENGFKDEKFNVEVKFYGNDARKVLLAMIYELYLPEYGREYVYPFECAKEFWNIYLEGEEIQDEEFQLKPIKFTSEQVIKKLQEEIKKIKPPLEIKIEEAKIYKTKEGYLAVGNYFILDPRGRLFIFNKPSIANKILKYIWKW | soluble
DNIITGRMKPLHWREMKEVDPNRVTLIDARPRQAYEVEHIPGAISMPVEEIRARIGEIPHDKPIYVYCAVGMRGYFASNILRQCGFSNVRNLIGGYRLYSTITADYSSAGQPATAQLPAKDSPSSHTQVPE | not soluble
DNNRWIPIKPGTDSALVLGMIQWIIENQRYNKTFLAQPGANAMKRAGTAHWCNATHLVISDEQHPRNGTFLRASDLNLPFEGEALSDSDPYVIVEEQSGQFGVHTQTEEATLFVDKTVSLASGKVRVKSSLQRLKEEAFKYSLAFYSQQCEIPVEQIAELAKRFTSCGTKAVVDTHGGNMHTNGFYNSFTIMMLNALIGNINMKGGAMAKAGGYPTSAAGPRYDFTKFAGKVGPKGVFLSRSKFPYHKTSEYKRRVEAGKSPYPTRAPWYPFAAPLLTEHLSAAIDGYPYRVKAWINHMANPMYGVPGLKTLLEDKLKDPKQLGLIVSVDAFINETTALSDYIVPDTVTYESWGMATPWHDVPVKTITARWPIVEARTEKTADGRSICLENFLIDVAKKMQLGGFGDNAIQDAQGNWHALHSAEDFYLRSAANLAYVKGGVPEVSAEDIAWSGLERLMPAMQSTLTADEMKRVAFIFARGGRFENATEAYQGEQMKHKWTRPVAIWNERVGSARNTMTGDFYTGCPTWHPQKLADGTPMEEQFPSSEWPFSLTNFKSNIHSAVSNLSPRLNSIKGVNPVYIHPIDAERAGIKTGDEFVIETPSASTKALAMIVSGIRPGTLGFEHGFGHTELGQRSHWIGDKQQPVKTRSQDGVNINDIGLIDPTREGKGVLLDWVVGAAARQSLPAKIRKA | not soluble
DPFSNLTELANALKEKYQLKNVTVAFSQTNDYSEISKQISQSAAEYLEEIIHDDDILGVSWGTTMYKIAQKLSPQKAEIKVVQLKGGVSHSDVNTYAAETLALFGAAYDTAPVSLPLPVVLDNPLAKQMVEADRHIKNIIELGKKANIAIFTVGTVREEALLFRLGYFSDEEKIRLKEKAVGDICSRFFTINGEIADEKMNERTIGIDLQDLKQKETAILVAGGERKIKAIHGALRGGYANHFITDQYTAKQLLEQNFS | not soluble
DPIGHLNKLPVAVVNSDTGVTKEGKTINAGEQITHSLVDQQQAKFIEVSADQARKGIADGTYYFAIEFPTDFSQAATSVKDPQPHQAKLNAVYNNANGFLATMLGNQVVGRVLAAVNENLGSQVANQLLVGFNTIGQGLGAAADGAGQLADGSHKAHDGADKLADGSTQLNNGLQQANDGAHKLYDGAGQLDQGIHTASNGADALADGLTKLNAATDTLGNGAGQVSAGVDKLVGVAQQASDAQAQLTVPLVNLSAQLRATGIPQAIDLANSADGIINSINAAGIGPQSDMMTQLSKLRNGASEIHRQLSDPTAQYRAGINSATEGAQKLSTGLHQLSDGSEKLVIGTKTLADGTTKLSAGSQQLTVGASQLSSGLVRLDEGASELSLKLGESKDKIPQFPDDTIADSARNVSTPVAENVARDSLS | not soluble
DQALSGQLRIGASDTIGNQVAPYLLSEFRQQTNHRSQSLFISNSAQICDMLTDYELDIALIEGKTLHPELQSTQFSEDEMCVICAPDYPAAHEGPVNLTELENSEWILREAGSGSREFFMRVVAPRLEHWHEAFQLNTTEAL | not soluble
DRILAQERLCRSEERYRLLFEEMMSGCALHELICDRDGNPADYRFLAVNGAFERMTGLRAADIVGKTVLEVMPGTERHWIERYGDVALSGRSAEFEEYAGAIGRYYSVRAYCPERGKFAAVFNDIT | not soluble
DRKMNRKMISIVENDGNGFREVFRYDYERKNFVPDNLKEITSIQLERSRELLGWSRDKLYREIENRLLLIRGLAEKGVYDYDTLARELVKYYTNGD | not soluble
DRSVIYPSEYFFLKGGNAFWRFGDSMEAAFQTLPPYTATADKHLILQTSYRASRLLVNFLPFVFLKTNDEALHFKARWDMVSRKPYLEMGYSES | not soluble
DSLGNLVDGDQIIYIIAKDRHQRGVLHGGVVGTLMSNYGLELAITSLGVPFQRSKVGDRYVLETLREKDWKIGGETSGHIVCLDKTTTGDGIVAALQVLSIMVKQNKALHELTAGIQLL | not soluble
DTIRWATEQAIANGTGEREYIKKLEPMLKELGWWGKAKDENGNEVQLGSPRRLRTILRTNKITAYHAARYAQQMENVDEQPYWRYVAVNDSRTRASHLALHGKIYRADDPIWQTMYPPNDWGCRCRVE | not soluble
DTLANAVYLRLMTPLGGWWADPTLGSRLHELSRSKDSNRIDLLACQYAEQALQPLLQDGRASRVQVSSQRQGPGRLLLNIEVAETGGHIRHFQHQVRI | not soluble
DTTYGCPGEWRCLKAAALGEGKFDEPVRVIGFVRCECPGNTLVPNIGMTMKLSEVKPDAIYFSSCMLRDPGCPYRSAEEWAKIVENAFQIPVKLGTH | not soluble
DVQINIRNNVYIPPCTINNGQNIVVDFGNINPEHVDNSRGEVTKTISISCPYKSGSLWIKVTGNTMGGGQNNVLATNITHFGIALYQGKGMSTPLTLGNGSGNGYRVTAGLDTARSTFTFTSVPFRNGSGILNGGDFRTTASMSMIYN | soluble
DVQLQESGPGLVKPSQSLSLTCTVTGYSITSLYAWNWIRQFPGNKLEWMGYINYSGYTSYNPSLKSRISITRDTSKNQFFLQLHSVTTEDTATYSCTRGVDYFAMDYWGQGASVTVSSAKTTAPSVYPLAPVCGDTTGSSVTLGCLVKGYFPEPVTLTWNSGSLSSGVHTFPALLQSDLYTLSSSVTVTSNTWPSQSITCNVAHPASSTKVDKKIVPRD | soluble
DWEVETGERYLPKLPECKIDNSKYQHPIQVVPSGPGMPEYLIYQVLTLAINQANRSVRITTPYFVPNTDLLETLKMTAQRGIDVELIIPHKNDSLMVQWASRAFYSELLAAGVKIYEFYGGLLHTKSVVIDDQFCLVGTVNMDMRSLWLNFEVTLAVDDEEFTKQLSWLQDGYIKQSHPVVLDEWEKRSLYSRFLERVFYLFNPLL | not soluble
DYIVEKLNMTKMYDIFSQYLPPQVFINDDSVVHLVRNSIYYKKMRGKHDLVILAGDFQGTTQEAQYELSYQVLQIAKEIGVSMIYTLGGYSIGKIVDKPRVLGAVTDKNLVADLEKNGVVFPKGE | not soluble
DYSQKLQNLISEQLVGCGFNEILNNSLTAASYYEGSETYKNENLVYLMNPLSNDLNVMRQTLLFGGLESIQHNANRKNADLKFFEFGNCYFYNAEKKNPEKVLAAYAEEYHLGLWVTGKRVSNSWAHPDENSSVYELKAYVLNIFTRLGLNFGNVVFGNLTNDIYSTAISVHTRGGKLLATFGIISKKIQKAFDIDNEVYYAEINWKELM | not soluble
EDATPETVEYRQLSAADLLADTHLLREVFGLLVLAHYRTEPSDLARLLDAPNLTVRALTHEGHVVAVALLAQEGGLSASTRATMYEGGRVRGNMLPDVLSTQLRDEAAGVPVGQRVLRIATHAAVRSRGLGSKLLSEIRAEFADHVDWVGVSYGATPELVRFWADNGYNTVHLATSRNATSGEYSVVMLDP | not soluble
EDMKGKIRVYCRLRPLCEKEIIAKERNAIRSVDEFTVEHLWKDDKAKQHMYDRVFDGNATQDDVFEDTKYLVQSAVDGYNVCIFAYGQTGSGKTFTIYGADSNPGLTPRAMSELFRIMKKDSNKFSFSLKAYMVELYQDTLVDLLLPKQAKRLKLDIKKDSKGMVSVENVTVVSISTYEELKTIIQRGSEQRHTTGTLMNEQSSRSHLIVSVIIESTNLQTQAIARGKLSFVDLAGSERVKKSGSAGNQLKEAQSINKSLSALGDVISALSSGNQHIPYRNHKLTMLMSDSLGGNAKTLMFVNISPAESNLDETHNSLTYASRVRSIVNDPSKNVSSKEVARLKKLVSYWKEQAGRKGDDEELEEIQDE | soluble
EDRVGERRIMIDKKEAIEHFRRHPGDGMIKLDLLTTAYNDINLIPPIYQPFLQDKQYFLGEVGQEPNTRMIYMSTFNQNGEEHPIILISLIDEIEITSTE | not soluble
EGLDYLTAPNPPSIREELCTASHDTITVHWISDDEFSISSYELQYTIFTGQANFISLYNSVDSWMIVPNIKQNHYTVHGLQSGTRYIFIVKAINQAGSRNSEPTRLKTNSQPFK | soluble
EKMTRDEIEYMLTNSEETLDADEIEMLQGVFSLDELMAREVMVPRTDAFMVDINDDSSDIIQTILNERFSRIPVYDDDKDKIIGIIHTKNLLNAGFKEGFDHINLRRILQEPLFVPETIVVNDLLTALKNTQNQMAILLDEYGGVAGLVTLEDLLEEIVGEIDDETDKTAISVREIADNTYIVLGTM | not soluble
